For this assay, the target named is p53_(125–134)/HLA-A24 pMHC, soluble recombinant (human | , UniProt P61769 21-119; P04637 125-134, biotin where the biotinylated pMHC was used (site not stated)). Briefly: SPR. In general terms: In SPR one partner is held on a chip, and binding of the other changes the refractive index at the surface.

These results are taken from article PMC6879612 (2019).

B1: P1C1gl (germline sequence converted P1C1), human IgG1 (antibody, V domains shown)
VH: QVQLQESGPGLVKPSQTLSLTCTVSGGSISSGGYYWSWIRQHPGKGLEWIGYIYYSGSTYYNPSLKSRVTISVDTSKNQFSLKLSSVTAADTAVYYCARENFGAFDHWGQGTLVTVSS
VL: QSVLTQPPSVSGAPGQRVTISCTGSSSNIGADYETHWYQQLPGTAPKLLIYGNTNRPSGVPDRFSGSKSGTSASLAITGLQAEDEADYYCQSYDSNLSAWVFGGGTKLTIL
By koff is commonly meant the rate constant with which the complex falls apart. Regarding B1, the koff was 0.139 s⁻¹.
